{
  "source": "paper PMC8556327",
  "key": {"[1]": {"target": "C-phycocyanin (αβ) monomer from Thermoleptolyngbya sp. O-77 (TlCPC) (Thermoleptolyngbya sp. O-77)", "assay": "crystal structure; TlCPC-6 crystals (rhombus or rod), sitting-drop vapor diffusion at 20 °C; reservoir 8% Tacsimate (pH 5.0), 20% polyethylene glycol 3,350; 1.65 Å"}, "[2]": {"target": "C-phycocyanin (αβ) monomer from Thermoleptolyngbya sp. O-77 (TlCPC) (Thermoleptolyngbya sp. O-77)", "assay": "cryo-EM structure; TlCPC 6.7 and 10 mg/mL in potassium phosphate buffer (pH 7.0, 10 mM), flash-frozen on holey carbon grid; single particle analysis; hexamers and octamers in the same specimens"}, "[3]": {"target": "C-phycocyanin (αβ) monomer from Thermoleptolyngbya sp. O-77 (TlCPC) (Thermoleptolyngbya sp. O-77)", "assay": "crystal structure; TlCPC-8 crystals (cube), sitting-drop vapor diffusion at 20 °C (also obtained at 42 °C); reservoir 1.6 M sodium chloride, 8% polyethylene glycol 6,000, 20% glycerol; space group I432; 2.77 Å"}, "[4]": {"target": "C-phycocyanin (αβ) monomer from Thermoleptolyngbya sp. O-77 (TlCPC) (Thermoleptolyngbya sp. O-77)", "assay": "AUC; sedimentation velocity, TlCPC 0.92 mg/mL in potassium phosphate buffer (pH 7.0, 10 mM), 20 °C, 60,000 rpm, absorbance at 277 nm, c(s) distribution (SEDFIT); major species 5.24 S, minor species 3.15 S (monomer), 7.97 S and 11.32 S"}},
  "note": "Values joined by “and” are separate entries in the source; they are usually repeats but may differ in a detail not shown here. Equal values may be shown once.",
  "data": [
    {"substance": "C-phycocyanin (αβ) monomer from Thermoleptolyngbya sp. O-77 (TlCPC) (complex)", "values": [
      {"measurement": "stoichiometry N", "setting": "[1]", "result": 6},
      {"measurement": "stoichiometry N", "setting": "[2]", "result": "6 and 8"},
      {"measurement": "stoichiometry N", "setting": "[3]", "result": 8},
      {"measurement": "stoichiometry N", "setting": "[4]", "result": "2 and 6 and 4"}
    ]}
  ]
}
